In the Immune Epitope Database (IEDB) one finds Kd and IC50 data, which are given here for 17 sequences.

What all share (conditions): source organism: Hepatitis B virus
The target of experiment [1] is HLA-B*51:01. As to the kind of experiment: IEDB peptide-MHC binding, purified MHC/competitive/radioactivity; filed as Kd, often an IC50 or EC50 that approximates it; ≥ and ≤ were set here for values at or beyond the usual limits of such assays.
Another experiment deals with HLA-A*02:06. The description is as above.
Experiment [2] deals with HLA-A*03:01. The description is as above.
Experiment [3] has as its target HLA-A*68:01. The experiment is described as above.
The next experiment addresses HLA-A*33:01. The experiment is described as above.
For the next experiment, the target named is HLA-A*31:01. The description is as above.
Experiment [4] addresses HLA-A*03:01. As to the kind of experiment: IEDB peptide-MHC binding, purified MHC/competitive/radioactivity; ≥ and ≤ were set here for values at or beyond the usual limits of such assays.
Experiment [5] has as its target HLA-B*51:01. Described as above.
A further experiment concerns the target HLA-B*35:01. The description is as above.
For experiment [6], the target named is HLA-A*68:01. The description is as above.
The next experiment has as its target HLA-A*02:03. In words: IEDB peptide-MHC binding, purified MHC/competitive/radioactivity; filed as Kd, often an IC50 or EC50 that approximates it; ≥ and ≤ were set here for values at or beyond the usual limits of such assays.
The target of the next experiment is HLA-B*53:01. As to the kind of experiment: IEDB peptide-MHC binding, purified MHC/competitive/radioactivity; ≥ and ≤ were set here for values at or beyond the usual limits of such assays.

pIC50, pKd: −log10 of the molar value. A value given as a limit tells only on which side of the number the result lay.

Broadly, the pKd is −log10 of the Kd, conventionally taken in molar units. For the sequence DPSRGRLGL, the pKd with HLA-B*51:01 [1] is ≤ 4.60.
As for GLLGWSPQA, in the experiment with HLA-A*02:06, the pKd is 5.88.
With GTDNSVVLSR, the negative logarithm of the Kd (pKd) in the experiment with HLA-A*03:01 [2] is ≤ 5.00; in the experiment with HLA-A*68:01 [3] it was ≤ 4.70.
As a reminder, the pIC50 is the IC50 on a negative log10 scale, so that one unit is a factor of ten. In the case of GTDNSVVLSRK, the pKd with HLA-A*33:01, in the experiment with HLA-A*31:01 and with HLA-A*68:01 [3] was ≤ 4.60 in each case. Further, the negative logarithm of the IC50 (pIC50) with HLA-A*03:01 [4] was 6.10.
In the case of HTLWKAGILY, the pKd with HLA-A*31:01 was ≤ 4.60.
Regarding IPIPSSWAF, the pIC50 with HLA-B*51:01 [5] is 6.66; in the experiment with HLA-B*35:01 it was 8.59.
Regarding KVGNFTGLY, the pKd in the experiment with HLA-A*33:01, with HLA-A*31:01 and in the experiment with HLA-A*68:01 [3] was ≤ 4.60 throughout.
Regarding MMWYWGPSLY, the pKd with HLA-A*33:01, with HLA-A*31:01 and in the experiment with HLA-A*68:01 [3] was ≤ 4.60 in each case.
For the sequence PVNRPIDWK, the pKd with HLA-A*33:01 and in the experiment with HLA-A*31:01 was ≤ 4.60 each time.
Consider RVTGGVFLVDK, for which the pKd in the experiment with HLA-A*33:01, with HLA-A*31:01 and with HLA-A*68:01 [3] was ≤ 4.60 each time. The pIC50 with HLA-A*03:01 [4] is 6.24.
With TLWKAGILY, the pKd with HLA-A*33:01 and in the experiment with HLA-A*68:01 [3] was ≤ 4.60 throughout.
Take TPARVTGGVF: the pKd in the experiment with HLA-B*51:01 [1] was ≤ 4.60.
For VTGGVFLVDK, the negative-log Kd (pKd) in the experiment with HLA-A*31:01 is ≤ 4.60.
Turning to VVDFSQFSR, the pIC50 with HLA-A*68:01 [6] was 6.49.
For YMDDVVLGA, the negative-log Kd (pKd) in the experiment with HLA-A*02:03 was 5.38; with HLA-A*02:06, ≤ 4.60.
With YMDDVVLGAK, the negative logarithm of the Kd (pKd) in the experiment with HLA-A*33:01, with HLA-A*31:01 and with HLA-A*68:01 [3] was ≤ 4.60 in each case.
As for YPALMPLYA, the negative-log IC50 (pIC50) in the experiment with HLA-B*51:01 [5] is 6.79; with HLA-B*53:01 it was 6.18; in the experiment with HLA-B*35:01, 6.82.
